Article PMC5179029, “Selection and Characterization of Tau Binding ᴅ-Enantiomeric Peptides with Potential for Therapy of Alzheimer Disease” (PLoS ONE, 2016)
Square brackets hold non-standard residues; d marks the D form. Ends that are not written are not given here. * marks the point of attachment. 6FAM = O=C1OC2(c3ccc(O)cc3Oc3cc(O)ccc32)c2cc(C(=O)*)ccc21

What was measured:
[1] = system: inducible N2aTau^4RDΔK280 cells; experiment: Penetration of FAM-labeled peptides into cells (confocal microscopy); assay type: cell-based; design: key to Cell penetration: membrane, 2 hours incubation / Cell penetration: membrane, 4 days incubation / Cell penetration: cytosol, 4 days incubation / Cell penetration: cytosol, 2 hours incubation / Cell penetration: nuclei, 4 days incubation / Cell penetration: nuclei, 2 hours incubation: +: Cell compartments where fluorescence of the label was detected are summarized here
Method: The peptides were obtained with a 6-Carboxyfluorescein (FAM) label, linked via a C-terminal lysine, to assay their ability to enter N2a cells expressing a variant of tau protein (construct tau^4RDΔK280, derived from the 4-repeat domain) in a regulatable fashion. The cells were incubated in the presence of the peptides for two hours (short term uptake) and four days (long term uptake and stability) at concentrations of 60 μM. After incubation the cells were fixed on glass cover slips and monitored by a confocal microscope (Fluoview 1000, Olympus). The localizations of the D-peptides were detected by their FAM-label (excitation: 488 nm, emission: 520 nm). In addition, cell nuclei were stained with TOPRO3 dye (excitation: 633 nm, emission: 660–670 nm). Representative pictures were taken with magnifications of 10-times for overview and 60- and 120-times for more detailed analysis.

[2] = biological target: T1, tau monomers (tau-441, 2N4R) (Homo sapiens, UniProt P10636); experiment: ELISA binding of FAM-labeled peptides to tau monomers; conditions: 20 μg/mL FAM-labeled peptide; for Binding to tau monomers (ELISA, in words): 5 μg/mL tau monomers coated, HRP anti-FITC detection; for ELISA signal, ranking among peptides: tau monomers and fibrils
T1 construct: Full lengths tau protein expression and purification; made in house
T1 sequence (P10636 1-441 isoform P10636-8): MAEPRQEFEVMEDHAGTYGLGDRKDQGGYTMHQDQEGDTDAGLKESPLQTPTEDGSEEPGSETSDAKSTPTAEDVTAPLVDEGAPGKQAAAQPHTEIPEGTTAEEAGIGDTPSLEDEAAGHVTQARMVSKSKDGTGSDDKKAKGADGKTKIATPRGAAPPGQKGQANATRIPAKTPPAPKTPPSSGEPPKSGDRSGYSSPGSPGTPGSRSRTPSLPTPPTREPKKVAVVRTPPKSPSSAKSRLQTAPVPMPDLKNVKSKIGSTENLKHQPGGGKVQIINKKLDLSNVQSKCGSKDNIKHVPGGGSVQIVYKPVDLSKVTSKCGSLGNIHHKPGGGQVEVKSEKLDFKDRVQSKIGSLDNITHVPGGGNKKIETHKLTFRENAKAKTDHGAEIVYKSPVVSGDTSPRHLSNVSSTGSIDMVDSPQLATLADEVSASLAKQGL
Method: (§1) Tau protein [tau-441 (2N4R) MW 45.9 kDa], purified as described in the main text, was used to prepare tau fibrils, the preparation of the fibrils was performed according to Barghorn et al. with slight modifications: 30 µM tau protein were incubated for 48 hours with 20 µM heparin MW ≈ 5000 (Fisher scientific, Schwerte, Germany) in phosphate-buffered saline (PBS) pH 7.4 at room temperature.
(§2) Polystyrene 96-well microtiter plates (Greiner Bio-One GmbH, Frickenhausen, Germany) were coated with 100 µL/well of tau monomers or fibrils in concentration of 5 µg/mL respectively, followed by incubation for 1 hour at room temperature. As control, PBS pH 7.4 containing 1 % BSA (IgG free) (Roth, Karlsruhe, Germany) was used instead of tau protein solution. After washing three times with PBS-T (phosphate-buffered saline (pH 7.4) with (0.1 %) Tween 20), and blocking for 1 h at room temperature with 1 % BSA (IgG free) (Roth, Karlsruhe, Germany) in PBS, the plate was washed three times with PBS-T. Then the peptides APT-Lys(FAM)-NH2, KNT-Lys(FAM)-NH2, LPS-Lys(FAM)-NH2, TD28-Lys(FAM)-NH2, TD28rev-Lys(FAM)-NH2 as well as d-TLKIVW-Lys(FAM)-NH2 (JPT Peptide Technologies, Berlin, Germany) were dissolved in PBS-T and added at 100 µL/well in concentration of 20 µg/mL, respectively, the plate was allowed to react for 1 h at room temperature in the dark. Subsequently, the plate was washed 3 times with PBS-T, horseradish peroxidase-conjugated sheep anti-FITC secondary antibodies (Bio-Rad, Muenchen, Germany) were diluted 1:5000 in PBS-T; the antibodies were incubated on the plate 1 h at room temperature. After incubation, the plate was washed 3 times with PBS-T. Subsequently, the substrate solution was prepared as follows: 10 mg of 3,3',5,5'-tetramethylbenzidine (TMB) (Roth, Karlsruhe, Germany) was dissolved in 1 ml dimethylsulfoxide (DMSO), 62 µL from TMB solution were mixed with 9 mL distilled water, 1 mL 1 M sodium acetate buffer (pH 6) and 10 µL 3 % hydrogen peroxide. 100 µL of the prepared substrate solution were transferred to the according wells. Finally, the reaction was stopped with 100 µL/well of 20 % H2SO4, and the plate was read at 450 nm (Multiskan GO, Thermo scientific, Germany).

[3] = biological target: T2, tau fibrils (tau-441, 2N4R, heparin induced) (Homo sapiens, UniProt P10636); experiment: ELISA binding of FAM-labeled peptides to tau fibrils; conditions: 5 μg/mL tau fibrils coated, 20 μg/mL FAM-labeled peptide, HRP anti-FITC detection
T2 construct: Full lengths tau protein expression and purification; made in house
T2 sequence (P10636 1-441 isoform P10636-8): as above
Method: as §1, §2

tau (Homo sapiens) = conditions: cited from earlier work
[4] = biological target: tau^3RD (three repeat domain construct of tau protein, K19) (human)
tau^3RD (three repeat domain construct of tau protein, K19) (human), sequence (P10636 other isoform, or with tags, fused parts or gaps): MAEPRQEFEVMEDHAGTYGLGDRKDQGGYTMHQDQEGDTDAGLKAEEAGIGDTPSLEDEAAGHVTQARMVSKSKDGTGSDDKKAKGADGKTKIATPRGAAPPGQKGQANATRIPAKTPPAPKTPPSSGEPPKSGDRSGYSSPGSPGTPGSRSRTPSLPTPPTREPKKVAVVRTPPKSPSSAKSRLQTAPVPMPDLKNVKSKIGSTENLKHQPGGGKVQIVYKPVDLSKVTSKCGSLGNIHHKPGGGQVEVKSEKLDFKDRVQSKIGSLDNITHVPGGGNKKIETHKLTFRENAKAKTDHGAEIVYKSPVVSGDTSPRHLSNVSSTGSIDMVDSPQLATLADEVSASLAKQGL

[5] = 60 μM FAM labeled peptide, N2aTau^4RDΔK280 cells, fixed cells, confocal microscope, FAM fluorescence
[6] = 60 μM FAM labeled peptide, N2aTau^4RDΔK280 cells, fixed cells, confocal microscope, FAM fluorescence, nuclei stained with TOPRO3

Molecule: TD28rev-Lys(FAM)-NH2: TD28rev with 6-Carboxyfluorescein (FAM) label linked via a C-terminal lysine ([dP][dP][dY][dY][dL][dR][dM][dQ][dL][dS][dT][dT]K(6FAM)-NH2; N-terminus assumed; SMILES CSCC[C@@H](NC(=O)[C@@H](CCCNC(=N)N)NC(=O)[C@@H](CC(C)C)NC(=O)[C@@H](Cc1ccc(O)cc1)NC(=O)[C@@H](Cc1ccc(O)cc1)NC(=O)[C@H]1CCCN1C(=O)[C@H]1CCCN1)C(=O)N[C@H](CCC(N)=O)C(=O)N[C@H](CC(C)C)C(=O)N[C@H](CO)C(=O)N[C@@H](C(=O)N[C@@H](C(=O)N[C@@H](CCCCNC(=O)c1ccc2c(c1)C1(OC2=O)c2ccc(O)cc2Oc2cc(O)ccc21)C(N)=O)[C@H](C)O)[C@H](C)O)
- Cell penetration: cytosol, 2 hours incubation [1, 5]: +
- Cell penetration: cytosol, 4 days incubation [1, 5]: +
- Cell penetration: membrane, 2 hours incubation [1, 5]: +
- Cell penetration: membrane, 4 days incubation [1, 5]: +
- Cell penetration: nuclei, 2 hours incubation [1, 6]: +
- Cell penetration: nuclei, 4 days incubation [1, 6]: +
- Binding to tau monomers (ELISA, in words) [2]: binding could be demonstrated
- Binding to tau fibrils (ELISA, in words) [3]: binding could be demonstrated

Molecule: TD28-Lys(FAM)-NH2: TD28 with 6-Carboxyfluorescein (FAM) label linked via a C-terminal lysine ([dT][dT][dS][dL][dQ][dM][dR][dL][dY][dY][dP][dP]K(6FAM)-NH2; N-terminus assumed; SMILES CSCC[C@@H](NC(=O)[C@@H](CCC(N)=O)NC(=O)[C@@H](CC(C)C)NC(=O)[C@@H](CO)NC(=O)[C@H](NC(=O)[C@H](N)[C@H](C)O)[C@H](C)O)C(=O)N[C@H](CCCNC(=N)N)C(=O)N[C@H](CC(C)C)C(=O)N[C@H](Cc1ccc(O)cc1)C(=O)N[C@H](Cc1ccc(O)cc1)C(=O)N1CCC[C@@H]1C(=O)N1CCC[C@@H]1C(=O)N[C@@H](CCCCNC(=O)c1ccc2c(c1)C1(OC2=O)c2ccc(O)cc2Oc2cc(O)ccc21)C(N)=O)
- Cell penetration: cytosol, 2 hours incubation [1, 5]: +
- Cell penetration: cytosol, 4 days incubation [1, 5]: +
- Cell penetration: membrane, 2 hours incubation [1, 5]: +
- Cell penetration: membrane, 4 days incubation [1, 5]: +
- Cell penetration: nuclei, 4 days incubation [1, 6]: +
- Binding to tau monomers (ELISA, in words) [2]: binding could be demonstrated
- ELISA signal, ranking among peptides [2]: highest
- Binding to tau fibrils (ELISA, in words) [3]: binding could be demonstrated

Molecule: APT-Lys(FAM)-NH2: APT with 6-Carboxyfluorescein (FAM) label linked via a C-terminal lysine ([dA][dP][dT][dL][dL][dR][dL][dH][dS][dL]G[dA]K(6FAM)-NH2; N-terminus assumed; SMILES CC(C)C[C@@H](NC(=O)[C@@H](CO)NC(=O)[C@@H](Cc1c[nH]cn1)NC(=O)[C@@H](CC(C)C)NC(=O)[C@@H](CCCNC(=N)N)NC(=O)[C@@H](CC(C)C)NC(=O)[C@@H](CC(C)C)NC(=O)[C@H](NC(=O)[C@H]1CCCN1C(=O)[C@@H](C)N)[C@H](C)O)C(=O)NCC(=O)N[C@H](C)C(=O)N[C@@H](CCCCNC(=O)c1ccc2c(c1)C1(OC2=O)c2ccc(O)cc2Oc2cc(O)ccc21)C(N)=O)
- Cell penetration: cytosol, 4 days incubation [1, 5]: +
- Cell penetration: membrane, 2 hours incubation [1, 5]: +
- Cell penetration: membrane, 4 days incubation [1, 5]: +
- Cell penetration, overall judgement (in words) ([1]; 60 μM FAM-labeled peptide, N2a cells, up to 4 days): worst cell penetration properties
- Binding to tau monomers (ELISA, in words) [2]: binding could be demonstrated
- Binding to tau fibrils (ELISA, in words) [3]: binding could be demonstrated

Molecule: KNT-Lys(FAM)-NH2: KNT with 6-Carboxyfluorescein (FAM) label linked via a C-terminal lysine ([dK][dN][dT][dP][dQ][dH][dR][dK][dL][dR][dL][dS]K(6FAM)-NH2; N-terminus assumed; SMILES CC(C)C[C@@H](NC(=O)[C@@H](CCCNC(=N)N)NC(=O)[C@@H](CC(C)C)NC(=O)[C@@H](CCCCN)NC(=O)[C@@H](CCCNC(=N)N)NC(=O)[C@@H](Cc1c[nH]cn1)NC(=O)[C@@H](CCC(N)=O)NC(=O)[C@H]1CCCN1C(=O)[C@H](NC(=O)[C@@H](CC(N)=O)NC(=O)[C@H](N)CCCCN)[C@H](C)O)C(=O)N[C@H](CO)C(=O)N[C@@H](CCCCNC(=O)c1ccc2c(c1)C1(OC2=O)c2ccc(O)cc2Oc2cc(O)ccc21)C(N)=O)
- Cell penetration: cytosol, 2 hours incubation [1, 5]: +
- Cell penetration: cytosol, 4 days incubation [1, 5]: +
- Cell penetration: membrane, 2 hours incubation [1, 5]: +
- Cell penetration: membrane, 4 days incubation [1, 5]: +
- Binding to tau monomers (ELISA, in words) [2]: binding could be demonstrated
- ELISA signal, ranking among peptides [2]: highest
- Binding to tau fibrils (ELISA, in words) [3]: binding could be demonstrated

Molecule: D-peptide D-TLKIVW
- Kd (tau (Homo sapiens)): 2 µM

Molecule: TTSLQMRLYYPP [TL28]
- half maximal effect concentration, inhibition of tau^3RD (K19) fibril formation (K19 with K19), ThS fluorescence in vitro [4]: > 200 µM
